Assay results as given in patent publication US6855549B1, “Methods and compositions for increasing the infectivity of gene transfer vectors” (The University of Iowa Research Foundation, priority 1998, dated 2005).

Columns and labels:
[1] = tested on: human bronchial epithelial cells; format: cell-based
Experimental: Primary human airway epithelial cells were collected by enzymatic digestion of bronchial samples from lung transplants as previously described (Kondo et al., 1991; Zabner et al., 1996). Isolated airway primary cells were seeded at a density of 5×10^5 cells/cm^2 onto collagen-coated Millicell-HA culture inserts (Millipore, Bedford, Mass.). Primary cultures were grown at the air-liquid interface for more than 2 wk, at which time differentiation into a mucociliary epithelium occurs. The culture medium, used to feed only the basolateral side of the cells, contained 49% Dulbecco's modified Eagle's medium (DMEM), 49% Ham's F12, and 2% Ultraser G (BioSepra, Cedex, France).
Recombinant AAV virus was produced by a CaPO4 co-transfection protocol and was purified through three rounds of isopycnic cesium chloride ultracentrifuigation, as previously described (Duan et al., 1997). […] Typical yields were 1×10^9 particles/μl, determined on the basis of DNA slot-blot hybridization assays against plasmid standards. […] Viral preparations were evaluated for the contamination of wild type AAV (wtAAV) by immunocytochemical staining of AV.GFP3ori/Ad.CMVLacZ (Duan et al., 1998)-coinfected 293 cells with anti-Rep antibodies (American Research Products, Belmont, Mass.). […]

airway epithelial cells = assay: BrdU staining of KGF-treated airway cultures; format: cell-based, human; conditions: KGF 100 ng/ml, two consecutive days
Experimental: Identification of proliferating airway epithelial cells were performed using bromodeoxyuridine (BrdU) labeling reagents from Zymed Laboratories (South San Francisco, Calif.). Cells were treated with recombinant human keratinocyte growth factor (rKGF; Chiron, San Diego, Calif.) at 100 ng/ml for two consecutive days. The cells were then pulse labeled for 12 hr with a 1:100 dilution of the BrdU labeling reagent prior to fixation in 10% neutral buffered formalin. Histochemical staining of BrdU incorporation into nuclei was performed according to the manufacturer's instructions. Cells were counterstained with hematoxylin and the cell culture filters were examined by en face microscopy of the apical surface.

epithelia = conditions: in vivo; cited from earlier work

B1: KGF: recombinant human keratinocyte growth factor (protein, UniProt P21781 32-194, looked up)
Fibroblast growth factor 7: CNDMTPEQMATNVNCSSPERHTRSYDYMEGGDIRVRRLFCRTQWYLRIDKRGKVKGTQEMKNNYNIMEIRTVAVGIVAIKGVESEFYLAMNKEGKLYAKKECNEDCNFKELILENHYNTYASAKWTHNGGEMFVALNQKGIPVRGKKTKKEQKTAHFLPMAIT
[1]; infection from the basal side
  long-term (40 day) gene expression after KGF: inhibited twofold
[1]; virus apical or basolateral
  efficiency of rAAV transduction after KGF: did not increase the efficiency of rAAV transduction
Airway epithelial cells
  cell proliferation by BrdU incorporation: significant increases in cell proliferation
epithelia
  mutagenicity: is not mutagenic
